Assay results reported in publication PMC8189969, “Interaction standards for biophysics: anti-lysozyme nanobodies” (European Biophysics Journal, 2021).

Assays:
[1] = molecular target: T1, hen egg white lysozyme (Gallus gallus (hen egg white), UniProt P00698); experiment: ITC; Malvern PEAQ-ITC; 20 °C; PBS pH 7.4 with 0.005% tween 20; lysozyme in the cell and nanobody titrated (so in the source); nanobody 20 or 30 µM, lysozyme 200 or 300 µM; single site model; settings: both partners purified
T1 construct: hen egg white lysozyme (HEWL), 14.5 kDa, monomeric; The source is named for ITC (Roche powder); also called HEWL; source: bought: Roche (HEWL lysozyme powder, > 95%)
T1 sequence (P00698 19-147): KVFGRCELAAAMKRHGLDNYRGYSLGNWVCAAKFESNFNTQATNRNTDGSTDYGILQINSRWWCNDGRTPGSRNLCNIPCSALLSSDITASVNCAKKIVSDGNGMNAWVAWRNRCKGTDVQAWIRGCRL

[2] = molecular target: T1, hen egg white lysozyme; experiment: SPR; Biacore T200; lysozyme amine-coupled (EDC/NHS) to a CM5 chip, max 100 units; nanobody as analyte, multi-cycle kinetics; PBS with 0.01% tween20; 20 °C (row labels of Table 1); Langmuir 1:1 model; settings: both partners purified
[3] = molecular target: H04 nanobody; experiment: SEC-MALS; Superdex-75 10/300, 0.75 ml/min, PBS pH 7.4; Wyatt Helios 18-angle photometer, QELS, Optilab TrEX
[4] = molecular target: T1, hen egg white lysozyme; experiment: SPR; Biacore T200; lysozyme amine-coupled (EDC/NHS) to a CM5 chip, max 100 units; nanobody as analyte, multi-cycle kinetics; PBS with 0.01% tween20; 20 °C (row labels of Table 1); Langmuir 1:1 model; settings: both partners purified; remark: listed apart in the source
[5] = molecular target: T1, hen egg white lysozyme; experiment: ITC; Malvern PEAQ-ITC; 37 °C; PBS pH 7.4 with 0.005% tween 20; lysozyme in the cell and nanobody titrated (so in the source); single site model; settings: both partners purified

B1: Phage-F07 nanobody (VHH)
VHH: EVQLQASGGGFVQPGGSLRLSCAASGTSSDLYDMGWFRQAPGKEREFVSAISGDDTQYTYYADSVKGRFTISRDNSKNTVYLQMNSLRAEDTATYYCAPRAHEPHGHWNYYWGQGTQVTVSS
notes: selected by phage display from the NaLi-H1 synthetic library (Hybrigenics); also called P-F07; source: E. coli T7-Express, purified (IMAC, Superdex-75)
- Kd [1]: 685 nM
- dH [1]: -23.5 kcal/mol

B2: H04 nanobody (VHH)
VHH: EVQLLESGGGLVQPGGSLRLSCAASGFRFDAEDMGWVRQAPGKGLEWVSSIYGPSGSTYYADSVKGRFTISRDNSKNTLYLQMNSLRAEDTAVYYCAKYTSPPQNHGFDYWGQGTLVTVSS
notes: crystal structure with lysozyme PDB 4U3X (Rouet et al. 2015); CDR3 of 12 residues; Developed in Daniel Christ's group (Rouet et al. 2015); source: E. coli T7-Express, purified (IMAC, Superdex-75)
- Kd [2]: 19 nM
- koff [2]: 0.0008 s⁻¹
- kon [2]: 43000 M⁻¹ s⁻¹
- Kd [1]: 24 nM
- dH [1]: -17.6 kcal/mol
- stoichiometry N [3]: 2

B3: H04 H106A nanobody (VHH)
VHH: EVQLLESGGGLVQPGGSLRLSCAASGFRFDAEDMGWVRQAPGKGLEWVSSIYGPSGSTYYADSVKGRFTISRDNSKNTLYLQMNSLRAEDTAVYYCAKYTSPPQNAGFDYWGQGTLVTVSS
notes: as the chain of m2 (H04) with H106A in CDR3; source: E. coli T7-Express, purified (IMAC, Superdex-75)
- Kd [4]: ~250 nM
- Kd [2]: 124 nM
- koff [2]: 0.056 s⁻¹
- kon [2]: 450000 M⁻¹ s⁻¹
- Kd [1]: 296 nM
- dH [1]: -17 kcal/mol

B4: Cab-Lys3 nanobody (VHH)
VHH: DVQLQASGGGSVQAGGSLRLSCAASGYTIGPYCMGWFRQAPGKEREGVAAINMGGGITYYADSVKGRFTISQDNAKNTVYLLMNSLEPEDTAIYYCAADSTIYASYYECGHGLSTGGYGYDSWGQGTQVTVSS
notes: crystal structure PDB 1XFP named for it (Muyldermans and Lauwereys 1999); CDR3 of 24 residues with an extra disulphide between CDR1 and CDR3; also called WT Cab-Lys3; source: E. coli T7-Express, purified (IMAC, Superdex-75)
- Kd [2]: 5 nM
- koff [2]: 0.0009 s⁻¹
- kon [2]: 41000 M⁻¹ s⁻¹
- Kd [1]: 27 nM
- dH [1]: 1.6 kcal/mol
- Kd [5]: 5 nM
- dH [5]: -4.02 kcal/mol

B5: Cab-Lys3 S105N nanobody (VHH)
VHH: DVQLQASGGGSVQAGGSLRLSCAASGYTIGPYCMGWFRQAPGKEREGVAAINMGGGITYYADSVKGRFTISQDNAKNTVYLLMNSLEPEDTAIYYCAADSTIYANYYECGHGLSTGGYGYDSWGQGTQVTVSS
notes: as the chain of m6 (Cab-Lys3) with S105N in CDR3; source: E. coli T7-Express, purified (IMAC, Superdex-75)
- Kd [2]: 35 nM
- koff [2]: 0.0028 s⁻¹
- kon [2]: 79000 M⁻¹ s⁻¹
- Kd [1]: 125 nM
- dH [1]: 2.6 kcal/mol
- Kd [5]: 73 nM
- dH [5]: -3.3 kcal/mol

B6: Cab-Lys3 T101S nanobody (VHH)
VHH: DVQLQASGGGSVQAGGSLRLSCAASGYTIGPYCMGWFRQAPGKEREGVAAINMGGGITYYADSVKGRFTISQDNAKNTVYLLMNSLEPEDTAIYYCAADSSIYASYYECGHGLSTGGYGYDSWGQGTQVTVSS
notes: as the chain of m6 (Cab-Lys3) with T101S in CDR3; source: E. coli T7-Express, purified (IMAC, Superdex-75)
- Kd [2]: 135 nM
- koff [2]: 0.029 s⁻¹
- kon [2]: 160000 M⁻¹ s⁻¹
- Kd [1]: 113 nM
- dH [1]: 3 kcal/mol
- Kd [5]: 105 nM
- dH [5]: -5.1 kcal/mol

B7: Phage-B09 nanobody (VHH)
VHH: EVQLQASGGGFVQPGGSLRLSCAASGSTYRRSTMGWFRQAPGKEREFVSAISSDHSHPDYYADSVKGRFTISRDNSKNTVYLQMNSLRAEDTATYYCAFQYDSDKKSYWGQGTQVTVSS
notes: selected by phage display from the NaLi-H1 synthetic library (Hybrigenics); also called P-B09; source: E. coli T7-Express, purified (IMAC, Superdex-75)
- Kd [2]: 1300 nM
- koff [2]: 0.6 s⁻¹
- kon [2]: 450000 M⁻¹ s⁻¹
- Kd [1]: 1430 nM
- dH [1]: -14.5 kcal/mol
